Among the data in article PMC9054013, “FCHO controls AP2’s initiating role in endocytosis through a PtdIns(4,5)P2-dependent switch” (Science Advances, 2022) are Kd values, retold here.

The target of the assay is T1, Cμ2 (μ2 residues 160 to 435), P84092.
T1 chain: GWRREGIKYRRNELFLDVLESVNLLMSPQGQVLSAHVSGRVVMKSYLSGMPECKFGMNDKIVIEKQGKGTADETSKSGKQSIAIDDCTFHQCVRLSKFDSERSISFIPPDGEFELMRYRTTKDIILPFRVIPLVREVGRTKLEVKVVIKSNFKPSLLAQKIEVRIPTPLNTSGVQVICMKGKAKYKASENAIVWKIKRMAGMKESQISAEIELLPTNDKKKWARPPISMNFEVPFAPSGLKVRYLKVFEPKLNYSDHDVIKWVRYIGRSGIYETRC
Briefly: ITC. The following applies: chain shown with the change;; parent: 25 ± 1 µM.

Usually Kd stands for the equilibrium constant for the complex coming apart.

NIPDVDAAGYSIAPETNQNDTKENHFYSSSDSDSEDEEPKKYR [FCHO2-N1+N2 (ITC), Q0JRZ9-1 E320A; E321A; K326A]: the Kd was 110 µM.

B1: FCHO2-N1+N2 (ITC), Q0JRZ9-1 Y340S (protein)
chain: NIPDVDEEGYSIKPETNQNDTKENHFSSSSDSDSEDEEPKKYRIEIKPMHPNNSHHTMASLDELKVSIGNITLSPAISRHS
As to B1, the Kd turned out to be 54 µM.
